# Data from the RNAGym collection of RNA variant scans (doi:10.1073/pnas.2313332121).
# B1: TPR t1 (parent)
# chain: GACCAAUCUGCCCUCAGAGCUCGAGAACAUCUUCGGAUGCAGAGGAGGCAGGCUUCGGUGGCGCGAUAGCGCCAACGUCCUCAACCUCCAAUGCAUCCCACCACAUGAUGAUGCCUGAAGAGCCUUGGUUUUUUG
# Variants of: B1
# Assay: polymerase ribozyme fitness, log enrichment relative to wild type (log ratio); higher = more active; in vitro selection for triplet polymerase activity
# Method in brief: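 Both subunits of a heterodimeric triplet polymerase ribozyme were given their own mutant library, built by PCR and transcribed. Each library was annealed with a biotinylated primer, the partner subunit and triplets, incubated frozen at −7 °C, and its extended constructs gel-excised, captured on streptavidin beads and amplified by RT-PCR, all in one round done in triplicate. Fitness is the logarithm of genotype enrichment relative to wild-type enrichment, with replicates averaged by inverse-variance weighting. That logarithm is base 2, and Illumina-sequenced genotypes needed ≥10 input reads and ≥1 read per output.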
row,Variant,polymerase ribozyme fitness (log ratio)
1,A29G C85G C88U,-2.58
2,C28U A37U,-2.36
3,C28U G61U U92C,-2.53
4,C28U G52C G61A U106A U112A,-1.95
5,A29C G69U G77U,-2.24
6,A29G C53G C62U U106A G117C,-4.22
7,A29C A50U C123U U129G,-4.5
8,C28U C64U,-2.29
9,A29C C56G,-3.25
10,C28G G120C,-1.89
11,A29C G48A A50C,-3.87
12,C28U A121U,0.361
13,A29G C31A C56G C99A A121G U129C,-7.31
14,A29C C73U U96A,-5.54
15,C28G G93U A119G U129C,-4.2
16,C28G U38C G77C A84U U92C G113U U129G,-5.83
17,A29G C56G C62A,-4.43
18,A29G C94A,-2.09
19,A29G C31G U55G C124U,-6.79
20,A29G G47A G51U C123G U129A U133G,-5.68
21,C28U C40A G71U U112C U126A,-3.58
22,A29U C31A G69A C104G G117C A121U,-7.2
23,A29C G45C G52A C85U,-5.05
24,A29C U130C,-2.27

row,Variant,polymerase ribozyme fitness (log ratio)
1,A29C C49U,-2.86
2,A29U C56A,-2.25
3,A29U C56U,-1.54
4,A29U A37U G44C C72G C114U,-4.21
5,A29G G71U A83U,-1.51
6,A29U A66G,-3.28
7,A29U A41G C53G,-2.64
8,A29G A46C A50G U54C G120U C123A U129C,-4.1
9,C28G C124G,-0.979
10,A29G G77U,-1.38
11,A29U A50G U81C C114U,-1.72
12,C28U C89U,-2.51
13,A29G U131C,-1.02
14,C28U A84G A90C G113C,-5.73
15,A29U C40A U109C U130G,-6.92
16,C28U G52A,-2.18
17,A29G G52U C70U U125A,-2.42
18,A29U C34U A46U U87G,-5.9
19,A29U A118U,-1.3
20,C28U G63A C88U,-3.69
21,A29G G44U A50U G69U,-2.04
22,A29C C79U,-3.18
23,C28G U81A U87C,-2.99
24,A29G G107A,-5.6

row,Variant,polymerase ribozyme fitness (log ratio)
1,A29C G51A,-6.28
2,A29U G44A C101U,-4.87
3,A29U C49A C64U C82A C97G A121G U133C,-3.41
4,C28U G58C G113C U132C,-4.51
5,A29C C49A G77A U78A,-3.15
6,C28U A29G C72U U112A C124U,-7.83
7,A29G U109G C114G,-6.5
8,C28U G52U C101U,-4.04
9,C28U C56G G57C,-2.34
10,C28G G69A A121C,-5.9
11,A29U G44A G110A U125A,-3.17
12,C28U G69A,-4.67
13,A29G C79U,-1.06
14,C28U G47A G60C,-3.22
15,C28G G60U C80U C115U G120C C123A U131A,-6.73
16,C28U G36C C79G A111U,-6.86
17,C28G C98U,-4.78
18,A29C U54C A84U G120C,-2.27
19,A29G A84C C94U U106A G120A U125G,-0.885
20,A29U C56U C123U,-0.0509
21,A29G U81C A100U,-3.08
22,A29G C104U U106G,-1.09
23,C28G C72U,-3.07
24,C28G C114U,-5.68

row,Variant,polymerase ribozyme fitness (log ratio)
1,A29C G39C,-3.97
2,A29C A50U,-2.67
3,A29G G45A A121C G128C,-2.4
4,C28U A105C,-4.77
5,A29G G69A C86A U112A C123G,-3.48
6,A29G G110A,-2.21
7,A29C U55C C72U C115A U133A,-2.23
8,A29C A66G G120A,-2.9
9,C28U G63A,-3.62
10,C28U G63U,-3.07
11,A29G U126A,-2.42
12,C28U G45A G52A U116C,-4.51
13,C28U G113U,-4.02
14,C28U C56G,-2.75
15,C28G G42A A43C G69U U96A C101U C124U,-4.78
16,A29G G61A,-0.852
17,A29G C53G U87C G113C,-3.02
18,A29G,-0.987
19,A29U,-1.67
20,A29C,-2.15
21,C28U C72U U112A G122A U129A,-4.79
22,A29G A41G C56A G61A C124A,-1.77
23,A29G G39U C94G,-2.78
24,C28G C73G C104A A111C,-4.53

row,Variant,polymerase ribozyme fitness (log ratio)
1,C28G C101U,-3.08
2,C28G U32C G69C U78C C86G G117U C123U,-7.36
3,A29U C94U A121U,-0.384
4,C28U A46U C94G,-4.44
5,C28U A83U C86G C123G,-1.55
6,A29G G71U,-1.72
7,C28G G63A,-4.42
8,A29U C40G G52C G69C A121G U132C,-2.06
9,C28G C76U,-3.02
10,A29U G39U A74U A91U U132A,-4.44
11,A29G G36A C53U U55C G69U G127C,-4.42
12,A29G G39U C85U C89U,-4.23
13,A29U A74C,-1.73
14,C28G G77U U78A C82U,-3.54
15,A29U G42C G113U U129A,-4.15
16,C28U A43U G48U G52C C86A C101A G117C C124U,-7.22
17,A29U C72G C104U G120C,-0.531
18,C28U C88U,-1.61
19,C28U A43G C72G U112G,-5.26
20,C28U A90U A111U,-5.21
21,A29C U55G G60U A75U,-2.08
22,A29G G60A U109A U112A G122A U130G,-6.7
23,A29G A37G G63A C88U A111C,-3.49
24,C28U C101A C123G G128U,-3.71

row,Variant,polymerase ribozyme fitness (log ratio)
1,A29U G42U G52A U109G,-2.63
2,C28U G39A U54C C79A,-4.8
3,C28G C53G U59A C73A C89A U109G A111U G120A,-6.66
4,C28U C49G,-3.16
5,C28G G52A C70U C80A G113C,-7.14
6,A29C G60U U87C,-2.47
7,A29G U112A,0.263
8,A29U C56U G120C G127A,-2.48
9,A29C C40U A41U G58C G71U C104U U129A,-6.05
10,C28G G44U A111C G117C,-6.59
11,A29G G58C G120U,-1.73
12,A29U C72U U92C,-2.98
13,A29U C40U C49A U106A,-1.76
14,C28U C86U,-2.31
15,A29G C49U G61A C85U,-1.74
16,A29U C73G,-1.92
17,C28U G47U C56U,-3.24
18,A29G C123U,-0.36
19,A29G C123G,0.246
20,A29U C124U U131A,-0.63
21,C28U G71A C89A C123G U130C,-3.76
22,C28G G39C C49U G69A,-6.04
23,C28G G47A C56U U116G,-5.77
24,A29G C40U G63A C104U G122A,-2.07

row,Variant,polymerase ribozyme fitness (log ratio)
1,C28G C53U C56G G77A C88U,-1.92
2,A29G U92A,-3.71
3,A29C G63C U78A U92A G120C,-5.6
4,C28G G58C C94A,-3.94
5,A29U C70G U125G,-3.65
6,C28G U32C G51U C79G,-5.29
7,A29C A74U,-2.93
8,A29C G36U C73U,-3.91
9,A29G A90C,-2.34
10,C28G G47U C53U,-4.48
11,C28G C56G,-3.01
12,C28G C56U,-2.39
13,C28U C53G U59G,-2.35
14,A29G G52A G71U C73U,-4.52
15,C28U C49U G60U A75G,-3.76
16,C28G C56G G61A G77A,-2.42
17,A29G A43C G122A,-4.45
18,A29G A43G,-2.43
19,C28G C94A,-4.49
20,A29G G51A,-3.06
21,A29C G93A,-3.03
22,A29U C94A,-1.79
23,C28U G52C U106A U112A,-1.6
